Results from the supplement of paper PMC10065799, “High-throughput profiling of sequence recognition by tyrosine kinases and SH2 domains using bacterial peptide display” (eLife, 2023).

How the values were obtained:
EPHB1 = EPHB1 (UniProt P54762); assay: phosphorylation enrichment, bacterial display (enrichment ratio); higher = better substrate or ligand; peptides without Tyr show the background
Hck = Hck (UniProt P08631); assay: as above
Fes = Fes (UniProt P07332); assay: as above
Fyn = Fyn (UniProt P06241); assay: as above
FGFR3 = FGFR3 (UniProt P22607); assay: as above
MERTK = MERTK (UniProt Q12866); assay: as above
c-Src = assay: as above
Jak2 = Jak2 (UniProt O60674); assay: as above
c-Abl (mouse) = assay: as above
FGFR1 = FGFR1 (UniProt P11362); assay: as above
EPHB2 = EPHB2 (UniProt P29323); assay: as above
AncSZ = assay: as above
Fer (mouse) = assay: as above
SHP2-C SH2 = assay: SH2 binding enrichment of the phosphorylated peptide, bacterial display (enrichment ratio); higher = better substrate or ligand; peptides without Tyr show the background
Grb2 SH2 = Grb2 SH2 (UniProt P62993); assay: as above
c-Src SH2 = assay: as above
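For SH2 binding enrichment of the phosphorylated peptide, bacterial display in this document: peptide library displayed on the E. coli surface as eCPX fusions, selected cells deep-sequenced, score is each peptide's frequency after selection divided by its frequency in the input.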
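For phosphorylation enrichment, bacterial display in this document: 11-residue human phosphosite peptides and single-mutation variants displayed on the E. coli surface, counted by deep sequencing, each peptide's frequency after selection divided by its frequency in the unselected input library; frequency after pTyr selection over input frequency; kinase dosed for 20-30% of maximal phosphorylation in three min.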

FGFR1, sequence (P11362 whole entry, looked up): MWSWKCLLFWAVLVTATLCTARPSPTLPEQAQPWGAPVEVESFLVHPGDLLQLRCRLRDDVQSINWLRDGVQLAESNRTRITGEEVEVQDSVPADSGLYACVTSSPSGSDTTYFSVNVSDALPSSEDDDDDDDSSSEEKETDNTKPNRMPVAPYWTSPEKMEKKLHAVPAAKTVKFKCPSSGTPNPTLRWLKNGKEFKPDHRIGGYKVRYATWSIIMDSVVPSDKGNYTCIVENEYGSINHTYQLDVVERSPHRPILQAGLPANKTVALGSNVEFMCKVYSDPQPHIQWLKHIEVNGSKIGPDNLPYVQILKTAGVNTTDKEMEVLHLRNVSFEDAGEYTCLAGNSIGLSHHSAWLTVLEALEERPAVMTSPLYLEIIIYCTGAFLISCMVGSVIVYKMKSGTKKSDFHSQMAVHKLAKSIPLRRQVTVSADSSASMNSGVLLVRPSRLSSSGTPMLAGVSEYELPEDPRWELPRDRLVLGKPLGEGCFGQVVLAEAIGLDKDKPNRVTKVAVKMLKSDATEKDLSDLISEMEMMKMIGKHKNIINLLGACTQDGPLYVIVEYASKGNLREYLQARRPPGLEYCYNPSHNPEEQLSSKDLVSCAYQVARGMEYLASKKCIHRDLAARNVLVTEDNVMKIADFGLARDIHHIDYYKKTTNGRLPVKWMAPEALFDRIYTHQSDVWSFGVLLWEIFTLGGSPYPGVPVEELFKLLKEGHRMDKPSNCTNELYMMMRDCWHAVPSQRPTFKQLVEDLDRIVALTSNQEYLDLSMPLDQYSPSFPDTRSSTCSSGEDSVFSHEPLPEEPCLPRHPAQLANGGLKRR
FGFR3, sequence (P22607 whole entry, looked up): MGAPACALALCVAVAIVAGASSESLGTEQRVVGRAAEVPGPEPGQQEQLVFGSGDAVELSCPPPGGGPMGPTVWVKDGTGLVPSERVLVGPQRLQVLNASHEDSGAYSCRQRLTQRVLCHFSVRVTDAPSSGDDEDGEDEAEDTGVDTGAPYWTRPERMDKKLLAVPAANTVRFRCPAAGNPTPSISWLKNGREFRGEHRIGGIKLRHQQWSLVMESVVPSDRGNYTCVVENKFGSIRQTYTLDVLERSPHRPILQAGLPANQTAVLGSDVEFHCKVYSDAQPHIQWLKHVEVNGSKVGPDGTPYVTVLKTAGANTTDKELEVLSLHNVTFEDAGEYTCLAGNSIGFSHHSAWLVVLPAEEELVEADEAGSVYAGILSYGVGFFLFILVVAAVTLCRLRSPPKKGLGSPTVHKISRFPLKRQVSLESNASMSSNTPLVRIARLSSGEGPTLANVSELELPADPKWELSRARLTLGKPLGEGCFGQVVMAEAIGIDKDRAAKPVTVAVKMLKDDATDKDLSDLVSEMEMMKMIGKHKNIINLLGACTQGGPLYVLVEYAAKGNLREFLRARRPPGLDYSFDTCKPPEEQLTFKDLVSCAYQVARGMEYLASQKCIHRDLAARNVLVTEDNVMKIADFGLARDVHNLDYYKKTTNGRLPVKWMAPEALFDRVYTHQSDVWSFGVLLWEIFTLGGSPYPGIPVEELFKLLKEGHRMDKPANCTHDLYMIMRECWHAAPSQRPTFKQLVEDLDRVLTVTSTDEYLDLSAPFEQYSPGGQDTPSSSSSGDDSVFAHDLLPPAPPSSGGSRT
Fes, sequence (P07332 whole entry, looked up): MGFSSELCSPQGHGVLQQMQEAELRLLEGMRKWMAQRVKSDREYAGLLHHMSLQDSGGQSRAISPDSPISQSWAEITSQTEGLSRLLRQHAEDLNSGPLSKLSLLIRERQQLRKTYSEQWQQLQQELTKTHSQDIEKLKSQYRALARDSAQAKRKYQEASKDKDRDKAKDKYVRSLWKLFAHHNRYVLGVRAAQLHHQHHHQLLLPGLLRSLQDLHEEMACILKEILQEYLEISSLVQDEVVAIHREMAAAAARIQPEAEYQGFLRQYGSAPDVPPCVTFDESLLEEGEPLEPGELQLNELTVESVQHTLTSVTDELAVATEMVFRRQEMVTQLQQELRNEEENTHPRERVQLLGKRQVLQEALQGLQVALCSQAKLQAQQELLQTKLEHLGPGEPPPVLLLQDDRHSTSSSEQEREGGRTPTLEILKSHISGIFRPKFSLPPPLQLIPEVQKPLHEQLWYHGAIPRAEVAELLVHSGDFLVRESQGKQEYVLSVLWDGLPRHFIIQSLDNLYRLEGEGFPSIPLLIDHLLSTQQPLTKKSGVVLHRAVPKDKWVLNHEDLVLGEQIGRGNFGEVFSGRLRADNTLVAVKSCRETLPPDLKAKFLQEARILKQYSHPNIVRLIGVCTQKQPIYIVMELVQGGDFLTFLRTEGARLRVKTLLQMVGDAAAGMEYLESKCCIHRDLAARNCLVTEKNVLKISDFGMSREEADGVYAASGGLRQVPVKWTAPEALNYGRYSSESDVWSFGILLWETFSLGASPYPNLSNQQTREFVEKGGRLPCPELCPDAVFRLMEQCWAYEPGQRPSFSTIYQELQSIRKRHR
Fyn, sequence (P06241 whole entry, looked up): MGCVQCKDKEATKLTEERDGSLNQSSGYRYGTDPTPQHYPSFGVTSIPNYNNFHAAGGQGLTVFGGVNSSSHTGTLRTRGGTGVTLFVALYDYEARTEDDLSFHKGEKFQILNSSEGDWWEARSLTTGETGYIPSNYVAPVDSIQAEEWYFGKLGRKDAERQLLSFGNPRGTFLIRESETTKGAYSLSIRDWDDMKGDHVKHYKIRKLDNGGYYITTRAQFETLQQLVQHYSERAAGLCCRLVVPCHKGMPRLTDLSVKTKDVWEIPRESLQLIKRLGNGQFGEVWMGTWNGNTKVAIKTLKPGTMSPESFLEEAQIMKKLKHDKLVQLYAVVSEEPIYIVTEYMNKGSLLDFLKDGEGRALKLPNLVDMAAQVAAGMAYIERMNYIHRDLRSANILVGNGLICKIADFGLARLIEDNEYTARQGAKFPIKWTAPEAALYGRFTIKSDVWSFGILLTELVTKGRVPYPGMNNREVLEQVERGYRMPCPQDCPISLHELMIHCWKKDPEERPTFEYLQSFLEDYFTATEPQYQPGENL
EPHB1, sequence (P54762 whole entry, looked up): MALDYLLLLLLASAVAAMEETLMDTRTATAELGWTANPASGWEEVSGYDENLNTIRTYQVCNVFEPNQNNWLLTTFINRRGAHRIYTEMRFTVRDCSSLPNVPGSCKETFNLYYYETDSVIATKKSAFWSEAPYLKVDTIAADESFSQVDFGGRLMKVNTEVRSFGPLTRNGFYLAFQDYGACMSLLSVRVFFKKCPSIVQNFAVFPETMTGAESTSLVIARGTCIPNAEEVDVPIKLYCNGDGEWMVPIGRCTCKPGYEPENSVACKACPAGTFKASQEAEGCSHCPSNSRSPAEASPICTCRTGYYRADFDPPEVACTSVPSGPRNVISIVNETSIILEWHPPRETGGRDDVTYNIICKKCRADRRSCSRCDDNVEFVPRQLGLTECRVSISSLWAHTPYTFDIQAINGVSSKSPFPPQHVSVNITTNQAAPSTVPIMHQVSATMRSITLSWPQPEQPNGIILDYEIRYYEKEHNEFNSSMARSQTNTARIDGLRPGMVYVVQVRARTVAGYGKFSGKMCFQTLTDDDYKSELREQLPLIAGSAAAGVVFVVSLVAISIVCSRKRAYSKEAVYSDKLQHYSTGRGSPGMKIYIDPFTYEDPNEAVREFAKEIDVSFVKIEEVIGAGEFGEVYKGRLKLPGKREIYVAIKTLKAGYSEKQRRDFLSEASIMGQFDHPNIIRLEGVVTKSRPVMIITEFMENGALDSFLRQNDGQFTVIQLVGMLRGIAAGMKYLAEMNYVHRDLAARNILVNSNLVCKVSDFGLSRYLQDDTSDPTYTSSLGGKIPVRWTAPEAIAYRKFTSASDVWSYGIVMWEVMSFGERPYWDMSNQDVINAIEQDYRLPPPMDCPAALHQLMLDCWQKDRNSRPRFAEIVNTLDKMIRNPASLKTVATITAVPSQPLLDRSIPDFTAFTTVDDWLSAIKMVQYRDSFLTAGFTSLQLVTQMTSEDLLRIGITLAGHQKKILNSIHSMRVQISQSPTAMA
EPHB2, sequence (P29323 whole entry, looked up): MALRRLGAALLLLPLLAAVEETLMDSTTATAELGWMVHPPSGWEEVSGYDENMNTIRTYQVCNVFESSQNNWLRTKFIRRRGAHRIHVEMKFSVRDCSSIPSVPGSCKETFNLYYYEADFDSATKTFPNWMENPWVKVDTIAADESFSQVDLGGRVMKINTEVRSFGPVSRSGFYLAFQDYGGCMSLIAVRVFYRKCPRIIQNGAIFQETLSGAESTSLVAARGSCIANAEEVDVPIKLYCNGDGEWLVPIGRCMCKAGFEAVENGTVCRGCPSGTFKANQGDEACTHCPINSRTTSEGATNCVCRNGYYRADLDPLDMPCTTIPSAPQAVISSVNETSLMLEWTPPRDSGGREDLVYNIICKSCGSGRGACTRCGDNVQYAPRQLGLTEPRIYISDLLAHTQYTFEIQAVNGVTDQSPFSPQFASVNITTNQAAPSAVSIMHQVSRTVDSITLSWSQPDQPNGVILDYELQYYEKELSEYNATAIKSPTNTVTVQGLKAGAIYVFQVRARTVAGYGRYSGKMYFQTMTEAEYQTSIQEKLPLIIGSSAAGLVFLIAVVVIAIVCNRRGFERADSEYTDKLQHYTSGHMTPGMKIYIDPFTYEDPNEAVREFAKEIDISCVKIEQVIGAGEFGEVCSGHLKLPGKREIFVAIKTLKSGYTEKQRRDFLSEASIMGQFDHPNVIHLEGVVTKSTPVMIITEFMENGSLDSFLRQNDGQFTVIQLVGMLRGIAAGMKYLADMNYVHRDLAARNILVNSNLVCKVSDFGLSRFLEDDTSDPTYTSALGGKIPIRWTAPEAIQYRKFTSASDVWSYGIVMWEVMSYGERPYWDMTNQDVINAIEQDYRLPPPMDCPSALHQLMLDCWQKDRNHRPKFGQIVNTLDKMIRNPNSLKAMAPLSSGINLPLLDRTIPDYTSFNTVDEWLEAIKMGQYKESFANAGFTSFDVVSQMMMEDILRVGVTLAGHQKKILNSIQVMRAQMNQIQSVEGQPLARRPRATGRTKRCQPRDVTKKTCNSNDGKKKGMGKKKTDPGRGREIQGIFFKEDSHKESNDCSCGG

Row | Sequence | phosphorylation enrichment (EPHB1) | phosphorylation enrichment (Hck) | phosphorylation enrichment (Fes) | phosphorylation enrichment (Fyn) | phosphorylation enrichment (FGFR3) | phosphorylation enrichment (MERTK) | phosphorylation enrichment (c-Src) | phosphorylation enrichment (Jak2) | phosphorylation enrichment (c-Abl (mouse)) | phosphorylation enrichment (FGFR1) | phosphorylation enrichment (EPHB2) | phosphorylation enrichment (AncSZ) | phosphorylation enrichment (Fer (mouse)) | SH2 binding enrichment (SHP2-C SH2) | SH2 binding enrichment (Grb2 SH2) | SH2 binding enrichment (c-Src SH2)
1 | IFHLSYIHNCE [PDE6B_Y227_L228I_YF] | 0.699 | 0.577 | 1.35 | 0.494 | 0.91 | 0.392 | 0.352 | 1.04 | 0.745 | 0.495 | 0.71 | 1.16 | 0.526 | 0.856 | 0.976 | 0.853
2 | LLVVLYKYRCY [PSEN1_Y154] | 0.318 | 0.708 | 1.79 | 0.532 | 0.615 | 0.746 | 0.609 | 0.974 | 1.57 | 0.686 | 0.642 | 1.11 | 0.699 | 0.87 | 1.17 | 0.777
3 | FADIAYNYRDG [PAH_Y166_H170D] | 0.404 | 0.352 | 0.836 | 0.371 | 0.622 | 0.363 | 0.418 | 1.04 | 0.545 | 0.397 | 0.501 | 0.942 | 0.376 | 0.575 | 1.12 | 0.639
4 | MFVKSYTIHFS [F5_Y2153_YF] | 0.565 | 0.495 | 1.19 | 0.482 | 0.736 | 0.456 | 0.48 | 1.05 | 0.851 | 0.49 | 0.579 | 1 | 0.464 | 0.753 | 0.742 | 0.494
5 | PTTKTYFPHFA [HBA1_Y43_D48A] | 0.572 | 0.754 | 0.724 | 0.798 | 0.599 | 0.675 | 0.781 | 0.469 | 0.646 | 0.313 | 0.386 | 0.796 | 0.384 | 0.734 | 0.714 | 0.496
6 | FETVKYFNNER [ABCB7_Y345_YF] | 0.564 | 0.381 | 0.898 | 0.39 | 0.606 | 0.288 | 0.345 | 0.702 | 0.567 | 0.417 | 0.445 | 0.828 | 0.465 | 1.04 | 0.862 | 0.509
7 | PNLILYGDFRQ [MYH7_Y715_R712L] | 0.688 | 2.87 | 1.28 | 5.16 | 0.762 | 0.465 | 2.98 | 0.75 | 0.766 | 0.552 | 0.602 | 1.09 | 0.72 | 0.823 | 0.944 | 0.482
8 | CVVVPYEPPEV [TP53_Y220_S215C] | 0.864 | 0.599 | 1.54 | 0.568 | 1.03 | 0.462 | 0.557 | 1.38 | 1.01 | 0.574 | 0.641 | 1.65 | 0.854 | 0.576 | 0.76 | 0.517
